One molecule from paper PMC10716038, “Talin and kindlin use integrin tail allostery and direct binding to activate integrins” (Nature Structural & Molecular Biology, 2023) can be followed below.

What all share (conditions): both partners purified
The target of assay [1] is T1, talin-1 head domain (THD1) (UniProt P26039 1-405).
T1 construct: talin-1 (TLN1) head domain (THD), residues 1-405; murine TLN1 cDNA is named only for the cell lines; also called WT; source: E. coli (DE3) Rosetta 2, purified (IMAC, SEC); not shown: His10-SUMO, N-terminal, cleaved
T1 sequence (P26039 1-405): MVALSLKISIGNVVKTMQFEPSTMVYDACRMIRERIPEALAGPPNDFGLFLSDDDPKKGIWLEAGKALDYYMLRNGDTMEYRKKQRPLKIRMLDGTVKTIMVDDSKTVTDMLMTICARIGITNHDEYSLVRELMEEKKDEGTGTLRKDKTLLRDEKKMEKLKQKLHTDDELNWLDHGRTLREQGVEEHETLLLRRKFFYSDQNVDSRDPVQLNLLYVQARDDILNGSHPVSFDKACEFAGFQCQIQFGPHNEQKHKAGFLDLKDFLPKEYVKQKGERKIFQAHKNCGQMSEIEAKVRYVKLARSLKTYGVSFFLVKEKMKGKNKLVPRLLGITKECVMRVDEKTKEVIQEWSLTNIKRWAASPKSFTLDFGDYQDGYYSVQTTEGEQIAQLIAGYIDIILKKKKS
Kind of assay: MST; unlabelled protein titrated to 50-200 nM ATTO 488-labelled β-CT peptide, no third protein; 20 mM Tris pH 7.5, 200 mM NaCl, 1 mM TCEP, 0.05% Tween-20; Kd of individual titrations (in S0002 mean and sd, n = 2).

The target of assay [2] is T2, KIND2 Y13A (UniProt Q8CIB5 1-680, Y13A).
T2 construct: kindlin-2 (KIND2), recombinant, Y13A; source: E. coli Rosetta, purified (IMAC, SEC); not shown: His10-SUMO, N-terminal, cleaved
T2 sequence (looked up): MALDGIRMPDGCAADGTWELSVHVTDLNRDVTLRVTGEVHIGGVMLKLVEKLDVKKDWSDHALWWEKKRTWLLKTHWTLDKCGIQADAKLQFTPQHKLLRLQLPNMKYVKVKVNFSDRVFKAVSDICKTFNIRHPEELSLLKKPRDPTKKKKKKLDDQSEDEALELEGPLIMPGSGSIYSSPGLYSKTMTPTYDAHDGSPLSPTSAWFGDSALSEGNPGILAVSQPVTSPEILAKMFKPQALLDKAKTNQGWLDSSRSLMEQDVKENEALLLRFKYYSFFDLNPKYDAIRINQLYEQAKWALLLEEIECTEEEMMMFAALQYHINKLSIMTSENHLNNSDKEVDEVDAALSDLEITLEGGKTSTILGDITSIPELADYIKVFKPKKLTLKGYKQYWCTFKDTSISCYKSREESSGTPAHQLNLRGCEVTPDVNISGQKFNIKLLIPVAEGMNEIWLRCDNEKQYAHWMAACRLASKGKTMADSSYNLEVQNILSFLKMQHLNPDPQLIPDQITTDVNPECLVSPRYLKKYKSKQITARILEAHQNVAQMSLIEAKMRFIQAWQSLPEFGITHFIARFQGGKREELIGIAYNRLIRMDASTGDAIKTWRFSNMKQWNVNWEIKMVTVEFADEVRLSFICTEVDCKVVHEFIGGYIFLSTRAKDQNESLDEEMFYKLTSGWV
Described as above.

For assay [3], the target named is T3, kindlin-2 (KIND2) (UniProt Q8CIB5 1-680).
T3 construct: kindlin-2 (KIND2), recombinant; with the F1 loop and the PH domain (unlike ΔKIND2); source: E. coli Rosetta, purified (IMAC, SEC); not shown: His10-SUMO, N-terminal, cleaved
T3 sequence (looked up): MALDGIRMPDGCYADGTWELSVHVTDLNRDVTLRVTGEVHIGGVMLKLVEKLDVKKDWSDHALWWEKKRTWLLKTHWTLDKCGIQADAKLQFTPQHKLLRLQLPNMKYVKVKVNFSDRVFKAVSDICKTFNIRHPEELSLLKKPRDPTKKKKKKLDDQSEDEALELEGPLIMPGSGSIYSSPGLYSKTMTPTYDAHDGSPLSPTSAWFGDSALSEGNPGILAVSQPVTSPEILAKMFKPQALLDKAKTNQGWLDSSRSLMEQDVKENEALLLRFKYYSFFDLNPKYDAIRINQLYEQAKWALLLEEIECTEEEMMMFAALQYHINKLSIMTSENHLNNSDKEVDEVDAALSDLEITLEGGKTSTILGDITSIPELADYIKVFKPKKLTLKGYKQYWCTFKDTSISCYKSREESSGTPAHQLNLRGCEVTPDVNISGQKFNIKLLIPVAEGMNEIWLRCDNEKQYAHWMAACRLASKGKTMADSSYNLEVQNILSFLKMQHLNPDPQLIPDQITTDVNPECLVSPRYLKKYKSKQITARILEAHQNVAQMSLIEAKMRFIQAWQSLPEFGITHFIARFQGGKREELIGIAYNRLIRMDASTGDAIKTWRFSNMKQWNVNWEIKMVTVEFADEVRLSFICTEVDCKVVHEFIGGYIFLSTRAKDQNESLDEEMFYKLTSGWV
In words: MST; apparent; KIND2 titrated to 488–β3-CT in the presence of 250-450 µM TLN2-F3; MST buffer.

The target in assay [4] is T3, kindlin-2 (KIND2). Kind of assay: MST; apparent; KIND2 titrated to 488–β3-CT in the presence of 100–400 µM THD2; MST buffer.
Assay [5] has as its target T4, THD1 K402E (UniProt P26039 1-405, K402E).
T4 construct: talin-1 (TLN1) head domain, residues 1-405, K402E; source: E. coli (DE3) Rosetta 2, purified (IMAC, SEC); not shown: His10-SUMO, N-terminal, cleaved
Kind of assay: MST; unlabelled protein titrated to 50-200 nM ATTO 488-labelled β-CT peptide, no third protein; 20 mM Tris pH 7.5, 200 mM NaCl, 1 mM TCEP, 0.05% Tween-20; Kd of individual titrations (in S0002 mean and sd, n = 2).

The target of assay [6] is T2, KIND2 Y13A. In words: MST; apparent; KIND2-Y13A titrated to 488–β3-CT or KIND2 to 488–β1-spacer-CT in the presence of 300-400 µM THD1; MST buffer.
The target of assay [7] is T4, THD1 K402E. Kind of assay: MST; apparent; THD1 or THD1 mutants titrated to 488–β3-CT in the presence of 30-40 µM KIND2; MST buffer.
For assay [8], the target named is T3, kindlin-2 (KIND2). In words: MST; apparent; KIND2 titrated to 488–β3-CT in the presence of 250-450 µM TLN1-F3; MST buffer.
Assay [9] addresses T5, talin-2 head domain (THD2) (UniProt Q71LX4 1-408).
T5 construct: talin-2 (TLN2) head domain (THD), residues 1-408; source: E. coli (DE3) Rosetta 2, purified (IMAC, SEC); not shown: His10-SUMO, N-terminal, cleaved
Kind of assay: MST; apparent; THD1 titrated to 488–β1-CT or THD2 to 488–β3-CT in the presence of 30 µM KIND2; MST buffer.

Values joined by “and” are separate entries in the source; they are usually repeats but may differ in a detail not shown here. Identical values can stand only once. No end group written: not given here.

T5 sequence (Q71LX4 1-408): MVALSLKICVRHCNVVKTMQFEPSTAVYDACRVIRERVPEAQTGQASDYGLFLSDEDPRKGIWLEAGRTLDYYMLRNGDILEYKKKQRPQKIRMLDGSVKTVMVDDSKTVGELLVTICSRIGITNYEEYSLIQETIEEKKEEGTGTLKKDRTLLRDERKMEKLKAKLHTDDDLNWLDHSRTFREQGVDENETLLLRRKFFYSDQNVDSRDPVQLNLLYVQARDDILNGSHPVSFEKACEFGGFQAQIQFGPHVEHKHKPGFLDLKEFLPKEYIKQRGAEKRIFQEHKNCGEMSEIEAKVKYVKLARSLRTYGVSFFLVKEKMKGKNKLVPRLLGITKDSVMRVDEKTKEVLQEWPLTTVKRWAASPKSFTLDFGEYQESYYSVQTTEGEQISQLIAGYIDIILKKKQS
T4 sequence (P26039 1-405 K402E): as the sequence (P26039 1-405) above, with K402E counted along it

B1: ATTO 488-labeled integrin β3 cytoplasmic tail (488–β3-CT) (peptide, UniProt O54890 741-787, looked up)
peptide: {ATTO 488}-KLLITIHDRKEFAKFEEERARAKWDTANNPLYKEATSTFTNITYRGT
notes: integrin β3 cytoplasmic tail (β3-CT); source: synthetic peptide (MPIB Core Facility)
For the molecule B1, the Kd is 81.6 µM in assay [1]; 9.85 µM and 9.2 µM and 9.18 µM and 7.89 µM in the assay with KIND2 Y13A [2]; 55.8 µM and 30.2 µM and 54.2 µM in the assay with kindlin-2 (KIND2) [3]; 20.9 µM and 29.1 µM and 29.5 µM in the assay with kindlin-2 (KIND2) [4]; 37.8 µM and 35.5 µM and 32.5 µM with THD1 K402E [5]; 24 µM and 20.7 µM and 18.8 µM with KIND2 Y13A [6]. For the same molecule, the Kd with THD1 K402E [7] was 54.3 µM and 67.7 µM and 70.3 µM; with kindlin-2 (KIND2) [8] it was 119 µM and 121 µM; in assay [9], 39.1 µM and 36.2 µM and 54 µM.
